Measurements reported in the supplement of paper PMC10126150.
± gives the standard deviation of the averaged measurements.

Test system: ATP
Assay: switch fluorescence ratio, 500 uM ATP over buffer (Cy3 cluster intensity, sum of 5 cycles each) (fold (ratio)); higher = stronger signal-on switching upon ATP binding; sequences stand for … in TCGTCGGCAGCGTCAGATGTGTATAAGAGACAGTTTTTTTTTTTTTTTTTTTTTTTTT…TC
Details: aptamer strand: ATP DNA aptamer (quencher-CACCTGGGGGAGTATTGCGGAGGAAGG + anchor), 100 nM annealed; ATP concentration: 500 uM
In short: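 Exposure to 500 uM ATP lasted 15 min at 22 °C before imaging, and a selection-buffer image was taken beforehand, for Cy3-labelled switching-strand clusters on a modified Illumina MiSeq flow-cell annealed to 100 nM quencher-labelled ATP aptamer. Five buffer/ATP cycles were run with NaOH stripping and re-annealing between them. The fluorescence ratio per cluster is summed target-cycle over summed buffer-cycle Cy3 intensity, averaged per switch-domain sequence. Clusters outside 100-1000 RFU were excluded.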

| Sequence | switch fluorescence ratio |
| --- | --- |
| ATAGGGTACG | 1.06 ± 0.022 |
| GACGCGAGTT | 1.09 ± 0.022 |
| TTGCGGGGGA | 1.01 ± 0.028 |
| GTTATTGCTT | 0.98 ± 0.068 |
| TAAGCGGCGC | 0.989 ± 0.084 |
| AGTCAATTGC | 1 ± 0.033 |
| AAGTGTGGGG | 1 ± 0.025 |
| CTGGGGGACG | 1.02 ± 0.016 |
| TCTTTGGACC | 1.04 ± 0.056 |
| AGAAGGGGTT | 1.04 ± 0.053 |
| AGGGATATTT | 1.01 ± 0.033 |
| TTAGTATTAC | 1.05 ± 0.029 |
| CCAGTGACAT | 1.03 ± 0.028 |
| GTTGTGGTTG | 0.987 ± 0.035 |
| ATTGTTTAAT | 1.03 ± 0.017 |
| TTATGTGAGT | 0.972 ± 0.0085 |
| TTCCTGTGGG | 1.02 ± 0.061 |
| TATGTGCTTG | 0.991 ± 0.021 |
| AGCTGTTTAG | 1 ± 0.014 |
| TGTTGCTAGG | 0.992 ± 0.031 |
| CAAATTTGGC | 0.986 ± 0.027 |
| TGGCGGAAAG | 0.977 ± 0.025 |
| TGTTAGTCCC | 0.9897 ± 0.0022 |

| Sequence | switch fluorescence ratio |
| --- | --- |
| TATTAGTATG | 0.991 ± 0.047 |
| ATTTTAGT | 1.01 ± 0.038 |
| AAACTGTTTG | 0.996 ± 0.024 |
| TTTGAAAAGT | 1.022 ± 0.0028 |
| TTACCATGGA | 0.995 ± 0.0021 |
| AAAGTGGTTA | 1.01 ± 0.025 |
| TGGTTGGATC | 0.984 ± 0.019 |
| GAGGGATTGT | 1 ± 0.021 |
| GATTGGGGGG | 1 ± 0.029 |
| ATCCGGGCGG | 1.02 ± 0.071 |
| GAGGGAGTAG | 0.9962 ± 0.0012 |
| AAATTCGGTG | 0.999 ± 0.016 |
| TAGTTAGAAG | 1.08 ± 0.13 |
| TGAGCGACTT | 1.005 ± 0.0095 |
| GAGTCTGAAA | 1.141 ± 0.006 |
| TGCTACCGGG | 1.058 ± 0.0016 |
| AGCATGAGTA | 1.01 ± 0.014 |
| CCACGATTAC | 3.44 ± 1.3 |
| GTGATGACTT | 1.001 ± 0.0061 |
| CCAGGAGGGG | 1.04 ± 0.012 |
| ATGCAGAGTA | 1.01 ± 0.018 |
| ATGAAAGACG | 1.04 ± 0.075 |
| GGGCCTGCGC | 1 ± 0.015 |

| Sequence | switch fluorescence ratio |
| --- | --- |
| TTAATTTTAT | 0.991 ± 0.015 |
| CCGTCGTACG | 1.06 ± 0.11 |
| CGTCGGGGGC | 1.005 ± 0.0096 |
| TTTAGAGTAT | 0.992 ± 0.018 |
| ATTACTAGTT | 0.9996 ± 0.0035 |
| TTACAAGGGT | 0.973 ± 0.023 |
| TGGGGGGGTC | 0.988 ± 0.048 |
| GGGTTTTCCA | 1.01 ± 0.021 |
| TCGCTGAATA | 1.04 ± 0.052 |
| CACCTGCCCC | 1.347 ± 0.011 |
| GGTTTTTCCG | 1.03 ± 0.033 |
| CTTTACTTCC | 2.1 ± 0.024 |
| GCGTTGGGAG | 1.018 ± 0.0031 |
| ATACGAACGG | 1.48 ± 0.015 |
| TACCATATTT | 1.04 ± 0.021 |
| ATGTTAGGGC | 0.975 ± 0.032 |
| GTAGTAAAGG | 0.9867 ± 0.0034 |
| TCTGTAGGGG | 0.995 ± 0.013 |
| TTTGGGGCTT | 1 ± 0.04 |
| ACTTATCCTT | 1.0512 ± 0.00011 |
| GGTCGGGGAA | 1.01 ± 0.042 |
| TTGGGGGTCG | 1.02 ± 0.034 |
| GGTAGCCGGT | 1.01 ± 0.041 |

| Sequence | switch fluorescence ratio |
| --- | --- |
| GCCTAGTTGT | 0.977 ± 0.028 |
| GTGGGATTGC | 0.9959 ± 0.0067 |
| GGAGGGGTCA | 0.9744 ± 0.0097 |
| GATGTAAGTG | 0.972 ± 0.02 |
| ACGGAGGGAA | 1.07 ± 0.085 |
| TGAAAAGGTA | 1 ± 0.013 |
| CCATGTTTGT | 1.01 ± 0.028 |
| TGGAGATTTT | 1.015 ± 0.0062 |
| GGTTGCAGCC | 1.02 ± 0.026 |
| GTGTCCACAG | 1 ± 0.014 |
| TTTTAGTGGG | 1.01 ± 0.039 |
| AGATTTGGTT | 1.01 ± 0.032 |
| TTTGTGTCGT | 0.982 ± 0.053 |
| TTTTTGAGTG | 0.976 ± 0.02 |
| GGATGCAGGG | 0.999 ± 0.012 |
| GTCGTTTAAA | 0.9898 ± 0.0062 |
| AGTTTACTTT | 1.03 ± 0.017 |
| ATTTAAGTGC | 0.981 ± 0.049 |
| GGTATAGTAG | 0.99304 ± 0.00031 |
| CCTATGGTTG | 0.997 ± 0.033 |
| ACTTGGAGCG | 1.018 ± 0.0092 |
| ATGTAGAGAT | 0.97 ± 0.016 |
| TTTGTGGTTT | 0.985 ± 0.043 |

| Sequence | switch fluorescence ratio |
| --- | --- |
| AACGATTTAT | 0.9936 ± 0.0068 |
| TACCTATTTT | 1.035 ± 0.0014 |
| CTTGGTTTTT | 1.01 ± 0.022 |
| ATTTAATTCT | 0.9981 ± 0.0077 |
| TTATAAATCT | 1.008 ± 0.0092 |
| ACATGGTTAT | 0.994 ± 0.018 |
| ACCACCGAGG | 1.045 ± 0.0061 |
| CATTAACAGG | 1.03 ± 0.021 |
| TATTGGCAGA | 1.008 ± 0.01 |
| AGATTCGTAC | 1.02 ± 0.021 |
| GCTATTGTTT | 0.9633 ± 0.0082 |
| TGTTGGTTGT | 0.9935 ± 0.0067 |
| ACTACAGGCT | 1.026 ± 0.0035 |
| TCAATAATGA | 1.02 ± 0.027 |
| GCGGTACACG | 1.01 ± 0.027 |
| TTGCGGGGT | 1.02 ± 0.011 |
| GGTTTGTATG | 0.976 ± 0.021 |
| GCATGTCTTG | 1 ± 0.028 |
| CAGGTCTGTG | 1.025 ± 0.0022 |
| TACTTTTGAC | 1.04 ± 0.011 |
| TTGAGTCCTT | 1.04 ± 0.022 |
| GAGCTAGTGT | 0.9792 ± 0.0081 |
| TTCTTTAGAG | 0.987 ± 0.055 |

| Sequence | switch fluorescence ratio |
| --- | --- |
| GGATCATTCG | 1.02 ± 0.048 |
| TAAGTAGTAT | 0.987 ± 0.017 |
| TAAGGAGACA | 1.01 ± 0.045 |
| GGCATGGGGG | 0.984 ± 0.017 |
| CGGAACAATG | 1.3945 ± 0.00059 |
| AAGCGCGAGG | 1.03 ± 0.022 |
| TTTTTCTGTT | 0.984 ± 0.039 |
| CATAGGGGCC | 0.9643 ± 0.0074 |
| ACGGAAGGGC | 1.11 ± 0.059 |
| GCTGTTTCAG | 0.986 ± 0.016 |
| GATTTTAGTG | 0.969 ± 0.015 |
| TCGTTCGCGG | 1.12 ± 0.015 |
| ATTGATTAAC | 1.013 ± 0.0043 |
| CAGATGCCTC | 1.012 ± 0.0086 |
| TGGATCTGCG | 1.01 ± 0.023 |
| GTATGTAGCG | 0.987 ± 0.027 |
| GGAGGGCGTC | 0.952 ± 0.0048 |
| ATGTGACAGC | 0.955 ± 0.062 |
| TTATAGATAT | 0.994 ± 0.015 |
| CGTCGTGACA | 1.03 ± 0.029 |
| GGGTCGTAGC | 1.01 ± 0.037 |
| AGGGAAGGGA | 1 ± 0.013 |
| TAGAAAGATT | 1.02 ± 0.016 |

| Sequence | switch fluorescence ratio |
| --- | --- |
| AAGTGGAATG | 1.02 ± 0.03 |
| TGTGTAATTT | 0.999 ± 0.012 |
| TTGGCAGATG | 1 ± 0.043 |
| GGATTGAATC | 1 ± 0.015 |
| CAGGGGGTAA | 1.01 ± 0.069 |
| AGTTTCAGGC | 1.01 ± 0.031 |
| CCGGACTCTT | 1.11 ± 0.015 |
| GGGTTCAAAC | 1 ± 0.039 |
| CGGTACGGGG | 0.979 ± 0.018 |
| TGGGTGAGGA | 1.04 ± 0.054 |
| GGAGCGAAGT | 1.16 ± 0.26 |
| AGGGGTTTCT | 0.984 ± 0.016 |
| TGTTAAAAAG | 0.991 ± 0.013 |
| ACATCGTCGG | 1.014 ± 0.0091 |
| TGGGAGCCTG | 0.987 ± 0.015 |
| TGATTTCACG | 1.02 ± 0.011 |
| TAGAATTGTG | 1.21 ± 0.33 |
| GCATTAATCG | 1.01 ± 0.025 |
| GCGTTCATAG | 0.995 ± 0.023 |
